The nature of assay [1]: Hydrolysis of R,S-HPPA methyl ester by free lipase or isozyme in aqueous buffer, R and S acids by HPLC. The assay is classed as biochemical. The procedure:
Lipase MY (Meito Sangyo), 340mg, 4g of R,S-HPPA methyl ester, and 200ml of 20mM KH2 PO4 (adjusted to pH 6.5) were mixed, with shaking, for 5.5 hours.
Analysis of the acid formed was carried out by extraction of the ester after adjustment of the aqueous solution to pH 6.5 (a slight pH drop occurs on hydrolysis) with CH2 Cl2 followed by adjusting the pH to 2 and extraction of the acid with ethyl acetate. The solution was evaporated to dryness, taken up in water and analyzed by HPLC with a Macherey Nagel-Duren Resolvosil BSA- column using 5% n-propanol, 10mM KH2 PO4, pH 5 at 2.7ml/min with detection at 220nm. At that time 35% of the R, S-ester was converted to the acid. The ratio of R and S acids was 94% R and 6% S.
Lipase MY (Meito Sangyo), Candida lipase B (Biocatalyst, Ltd), lipase OF (Meito Sangyo), and Lipase AY (Amano) were compared for stereoselectivity for production of R-HPPA from R,S-HPPA methyl ester. The preparations, in amounts shown in Table I, were added to 50 ml of 20 mM HPPA methyl ester in 50 mM KH2 PO4 pH 6.5. […] The ratio of R to S acid was determined by HPLC as described in Example 3 at approximately 16% hydrolysis of the ester.
Two hundred mls of KH2 PO4 (pH 6.5) was combined with 400 mg HPPA-Me and 500 units of T. californica acetylcholine esterase. The reaction mixture was shaken for 24 hours and then sampled and analyzed as in Example 3. […]

A short description of assay [2]: Hydrolysis of ketoprofen esters by lipases, acid by HPLC, ee via diastereomeric amides. In kind it is biochemical. The procedure: To a solution of 9ml of 100mM ammonium phosphate (pH 5.5) in 50 ml Erlenmeyer flask a weighed amount of ester (either directly or dissolved in 200 ul DMF) was added. A solution of the weighed amount of enzyme in 1 ml of the same buffer was added. The mixture was agitated in a rotary shaker at 250 RPM at 35° C. typically for 22 hours. The reaction mixture was acidified with 8 drops 6(N) HCl to pH 1.5-2.0, extracted with CHCl3 (2×10 ml). The CHCl3 solution was analyzed by HPLC to determine the percent of acid produced in the hydrolysis.
The CHCl3 extract (5 ml) of the hydrolysis reaction was dried over anhydrous Na2 SO4 and filtered. The filtrate was cooled to 0° C. in stoppered vials and 100 ul of N-methylmorpholine, followed by 100 ul of isobutyl chloroformate were added. After gently shaking at 0° C. for 10 minutes, 100 ul of D-(+)-1-phenylethylamine was added and gently shaking at 0° C. was continued for 5 minutes. The reaction mixture was then shaken at room temperature for 5 minutes. The reaction mixture was washed with water (5 ml), 1(N) HCl (5 ml) and again with water (5 ml). The diastereomeric amides produced were then analyzed by HPLC on a column as specifically noted to determine the ee (%S-%R) of the acid produced by enzymatic hydrolysis of the esters.
Ketoprofen esters (50 mg) were hydrolyzed as above. HPLC analysis for the amount of acid produced for the ketoprofen monoglyceride and ketoprofen ethylene glycol ester hydrolysis were performed on Partisil 5 ODS-3 RAC column (9.4 mm×100 mm, Whatman) using CH3 OH: 10mM (NH4)H2 PO4 (60:40) at 4 ml/min and monitoring at 254 nm. HPLC analysis of the acid produced in the hydrolysis of the other esters were done on ODS-3 RAC column using CH3 OH: 10 mM (NH4)H2 PO4 (80:20) at 2ml/min and monitoring at 254 nm. The enantiomeric excess of the ketoprofen produced for each hydrolysis was determined by analysis of the amides by HPLC on ODS-3 RAC column using CH3 OH:10 mM (NH4)H2 PO4 (60:40) at 4 ml/min and monitoring at 254 nm. […]
To determine whether oleic acid could be used to enhance the rate/selectivity using other lipase and/or substrates, the following experiment was performed. 50 mg of either the diethylene glycol ester, triethylene glycol monomethyl ester, monoglyceride ester, or ethylene glycol ester was placed in 50 ml Erlenmeyer flasks. To this was added 50 mg of Lipase MY, 50 mg of the Mucor miehei lipase, 2.5 mg of the Candida cylindracea lipase (Biocatalyst), or 5 mg of lipase OF, all in 1 ml of buffer. 10 ul of pig liver esterase was also used. Oleic acid was added to the flasks at 200 ul. Buffer was added to a final volume of 10 ml, and the flasks were incubated at 35.C, 250 rpm, acidified, and extracted with CHCl3 and analyzed by HPLC as in Example 18.

[3] abbreviates: diethylene glycol ester, enzyme alone.
Where [4] appears, read: ethylene glycol ester, + oleic acid.
The mark [5] stands for this setting: ethylene glycol ester, enzyme alone.
The mark [6] stands for this setting: monoglyceride ester, + oleic acid.
Where [7] appears, read: monoglyceride ester, enzyme alone.
[8] abbreviates: monomethyl triethylene glycol ester, + oleic acid.
[9] abbreviates: monomethyl triethylene glycol ester, enzyme alone.

B1: acetylcholinesterase of T. californica: acetylcholine esterase from Torpedo californica (protein, UniProt P04058 22-564, looked up)
Acetylcholinesterase: DDHSELLVNTKSGKVMGTRVPVLSSHISAFLGIPFAEPPVGNMRFRRPEPKKPWSGVWNASTYPNNCQQYVDEQFPGFSGSEMWNPNREMSEDCLYLNIWVPSPRPKSTTVMVWIYGGGFYSGSSTLDVYNGKYLAYTEEVVLVSLSYRVGAFGFLALHGSQEAPGNVGLLDQRMALQWVHDNIQFFGGDPKTVTIFGESAGGASVGMHILSPGSRDLFRRAILQSGSPNCPWASVSVAEGRRRAVELGRNLNCNLNSDEELIHCLREKKPQELIDVEWNVLPFDSIFRFSFVPVIDGEFFPTSLESMLNSGNFKKTQILLGVNKDEGSFFLLYGAPGFSKDSESKISREDFMSGVKLSVPHANDLGLDAVTLQYTDWMDDNNGIKNRDGLDDIVGDHNVICPLMHFVNKYTKFGNGTYLYFFNHRASNLVWPEWMGVIHGYEIEFVFGLPLVKELNYTAEEEALSRRIMHYWATFAKTGNPNEPHSQESKWPLFTTKEQKFIDLNTEPMKVHQRLRVQMCVFWNQFLPKLLNATACDGELSS
For the molecule B1, the “stereoselective hydrolysis of HPPA-Me to R-HPPA” value in assay [1] is “did not stereoselectively hydrolyze”. In assay [1] (500 units, 400 mg HPPA-Me, pH 6.5, 24 hours), the “hydrolyzing activity on HPPA-Me” value is “Very little hydrolyzing activity”.

B2: Mucor miehei: Mucor miehei lipase (protein, UniProt P19515 95-363, looked up)
Lipase: SIDGGIRAATSQEINELTYYTTLSANSYCRTVIPGATWDCIHCDATEDLKIIKTWSTLIYDTNAMVARGDSEKTIYIVFRGSSSIRNWIADLTFVPVSYPPVSGTKVHKGFLDSYGEVQNELVATVLDQFKQYPSYKVAVTGHSLGGATALLCALDLYQREEGLSSSNLFLYTQGQPRVGDPAFANYVVSTGIPYRRTVNERDIVPHLPPAAFGFLHAGEEYWITDNSPETVQVCTSDLETSDCSNSIVPFTSVLDHLSYFGINTGLCT
In the case of B2, the “% ee (R = R-acid)” value in assay [2] (diethylene glycol ester, + oleic acid) is recorded as 2R; in assay [2] (setting [3]), 41R; in assay [2] (setting [4]), 42R; in assay [2] (setting [5]), 54R; in assay [2] (setting [6]), 35R; in assay [2] (setting [7]), 40R. Moreover, the “% ee (R = R-acid)” value in assay [2] (setting [8]) turned out to be 1R; in assay [2] (setting [9]) it was 36R. The “% Acid” value is 20% in assay [2] (diethylene glycol ester, + oleic acid 200 ul); 24% in assay [2] (setting [3]); 10% in assay [2] (setting [4]); 17% in assay [2] (setting [5]); 4% in assay [2] (setting [6]); 20% in assay [2] (setting [7]). In addition, the “% Acid” value stood at 6% in assay [2] (setting [8]) and 26% in assay [2] (setting [9]).

The values above are taken from patent publication US5108916A, “Process for stereoselectively hydrolyzing, transesterifying or esterifying with immobilized isozyme of lipase from Candida rugosa” (priority 1989, dated 1992).
